Measured values as given in publication PMC4678811, “Assembly and dynamics of the U4/U6 di-snRNP by single-molecule FRET” (Nucleic Acids Research, 2015).

Tests used:
Assay in all cases: EMSA
[1] = tested on: LSm2-LSm8 complex;Snu13;Prp31 (Saccharomyces cerevisiae;Saccharomyces cerevisiae;Saccharomyces cerevisiae); settings: LSm titrated; Snu13, Prp31 prebound; apparent; Hill 1; EMSA: 2 nM RNA, 10 mM K-HEPES pH 7.5, 100 mM KCl, 0.01% NP-40, 20 ug E. coli tRNA in 100 ul, on ice 60 min, 4% native gel 0.5X TBE 4 C; smFRET: 10 mM Tris-HCl …
[2] = tested on: Sm protein complex (SmB, D1, D2, D3, E, F, G);Snu13;Prp31 (Saccharomyces cerevisiae;Saccharomyces cerevisiae;Saccharomyces cerevisiae); settings: Sm titrated; Snu13, Prp31 prebound; apparent; Hill 2.3; EMSA: 2 nM RNA, 10 mM K-HEPES pH 7.5, 100 mM KCl, 0.01% NP-40, 20 ug E. coli tRNA in 100 ul, on ice 60 min, 4% native gel 0.5X TBE 4 C; smFRET: 10 mM Tris-HCl …
[3] = tested on: Prp3/4 (Prp3-Prp4 complex);Snu13;Prp31;Sm protein complex (SmB, D1, D2, D3, E, F, G) (Saccharomyces cerevisiae;Saccharomyces cerevisiae;Saccharomyces cerevisiae;Saccharomyces cerevisiae); settings: Prp3/4 titrated; Snu13, Prp31, Sm prebound; apparent; Hill 1; EMSA: 2 nM RNA, 10 mM K-HEPES pH 7.5, 100 mM KCl, 0.01% NP-40, 20 ug E. coli tRNA in 100 ul, on ice 60 min, 4% native gel 0.5X TBE 4 C; smFRET: 10 mM Tris-HCl …
[4] = tested on: Prp3/4 (Prp3-Prp4 complex);Snu13;Prp31 (Saccharomyces cerevisiae;Saccharomyces cerevisiae;Saccharomyces cerevisiae); settings: Prp3/4 titrated; Snu13, Prp31 prebound; apparent; Hill 1.5; EMSA: 2 nM RNA, 10 mM K-HEPES pH 7.5, 100 mM KCl, 0.01% NP-40, 20 ug E. coli tRNA in 100 ul, on ice 60 min, 4% native gel 0.5X TBE 4 C; smFRET: 10 mM Tris-HCl …
[5] = tested on: Prp31;Snu13 (Saccharomyces cerevisiae;Saccharomyces cerevisiae); settings: Prp31 titrated; Snu13 prebound; apparent; Hill 2.9; EMSA: 2 nM RNA, 10 mM K-HEPES pH 7.5, 100 mM KCl, 0.01% NP-40, 20 ug E. coli tRNA in 100 ul, on ice 60 min, 4% native gel 0.5X TBE 4 C; smFRET: 10 mM Tris-HCl …
[6] = tested on: Sm protein complex (SmB, D1, D2, D3, E, F, G);Snu13 (Saccharomyces cerevisiae;Saccharomyces cerevisiae); settings: Sm titrated; Snu13 prebound; apparent; Hill 2.2; EMSA: 2 nM RNA, 10 mM K-HEPES pH 7.5, 100 mM KCl, 0.01% NP-40, 20 ug E. coli tRNA in 100 ul, on ice 60 min, 4% native gel 0.5X TBE 4 C; smFRET: 10 mM Tris-HCl …
[7] = tested on: LSm2-LSm8 complex;Snu13 (Saccharomyces cerevisiae;Saccharomyces cerevisiae); settings: LSm titrated; Snu13 prebound; apparent; Hill 3.3; EMSA: 2 nM RNA, 10 mM K-HEPES pH 7.5, 100 mM KCl, 0.01% NP-40, 20 ug E. coli tRNA in 100 ul, on ice 60 min, 4% native gel 0.5X TBE 4 C; smFRET: 10 mM Tris-HCl …
[8] = tested on: Prp3/4 (Prp3-Prp4 complex);Snu13 (Saccharomyces cerevisiae;Saccharomyces cerevisiae); settings: Prp3/4 titrated; Snu13 prebound; apparent; Hill 3.4; EMSA: 2 nM RNA, 10 mM K-HEPES pH 7.5, 100 mM KCl, 0.01% NP-40, 20 ug E. coli tRNA in 100 ul, on ice 60 min, 4% native gel 0.5X TBE 4 C; smFRET: 10 mM Tris-HCl …
[9] = tested on: Prp3/4 (Prp3-Prp4 complex);Snu13;Prp31;Sm protein complex (SmB, D1, D2, D3, E, F, G);LSm2-LSm8 complex (Saccharomyces cerevisiae;Saccharomyces cerevisiae;Saccharomyces cerevisiae;Saccharomyces cerevisiae;Saccharomyces cerevisiae); settings: EMSA: 2 nM RNA, 10 mM K-HEPES pH 7.5, 100 mM KCl, 0.01% NP-40, 20 ug E. coli tRNA in 100 ul, on ice 60 min, 4% native gel 0.5X TBE 4 C; smFRET: 10 mM Tris-HCl …
[10] = tested on: LSm2-LSm8 complex;Snu13;Prp31;Sm protein complex (SmB, D1, D2, D3, E, F, G) (Saccharomyces cerevisiae;Saccharomyces cerevisiae;Saccharomyces cerevisiae;Saccharomyces cerevisiae); settings: LSm titrated; Snu13, Prp31, Sm prebound; apparent; Hill 1; text prints 152; EMSA: 2 nM RNA, 10 mM K-HEPES pH 7.5, 100 mM KCl, 0.01% NP-40, 20 ug E. coli tRNA in 100 ul, on ice 60 min, 4% native gel 0.5X TBE 4 C; smFRET: 10 mM Tris-HCl …

Work on U4/U6 snRNA duplex (full length) yielded a Kd [1] of 98 nM, a Kd [2] of 108 nM and a Kd [3] of 557 nM. The Kd [4] was 417 nM, the Kd [5] was 50 nM and the Kd [6] was 92 nM. For the same substance, the Kd [7] was 26 nM, the Kd [8] was 88 nM and the Kd [9] was 20 nM. The Kd [10] was 154 nM.
